Molecular target: T1, MOC-Arg-Ala-Glu-Leu-Gln-Gly-Pro-Tyr-Asp-Lys-DNP-NH2
T1 chain: RAELQGPYDK

B1: Human Rhinovirus serotype 1A 3C Protease (protein)
chain: GPEEEFGRSILKNNTCVITTGNGKFTGLGIHDRILIIPTHADPGREVQVNGVHTKVLDSYDLYNRDGVKLEITVIQLDRNEKFRDIRKYIPETEDDYPECNLALSANQDEPTIIKVGDVVSYGNILLSGNQTARMLKYNYPTKSGYCGGVLYKIGQILGIHVGGNGRDGFSAMLLRSYFTDTQ
Km (fluorescence resonance energy transfer protease activity assay): with a Km value of 16.8 µM
